This is an account of results in patent US20230226096A1 (Orna Therapeutics, Inc., priority 2020, published 2023).

Sequences and labels used below:
B1: Falcon picornavirus (nucleic acid)
DNA: CGCTTGGAATAAGTTGAGAGGAATTATGCATGCTAGTTGTGTTTGTTTACAACTAATTGTTCTAATCCAAGTGAAGCTCTTCGCTTGGGGCGGCACGACACTTGCCGTAATTCTTCTACCGTCCCTCCACACCTTGTGGATGAAGGGCCGGATGTGTGGCCTCTGGCTAACCCCTCTCTCTGGGGTGATGCTACTGGATGTTTTACTCCTAGACCAAATCACATGAACTCCTCTTGATCCACTTCGGTGGGGCTATGAGCCTGCGGATTAATAGCTGGCGACAGCTACCCCAGGGGCCAAAAGCCACGGTGTTAGCAGCACCCTCATAGTCTGATGCCCAAGGGCTGATGTTGGGAGCTAGTAGTGTGTGTCTGGCCTATGTTTAGGACTTCTGGCCAAGCGCAGAGGAGTGGGGCTGAAGGATGCCCAGAAGGTACCCGTAGGTAACCTTAAGAGACTATGGATCTGATCTGGGGCCCCCTCACGTGGCTTTACCACGTGTTGGGGGTTAAAAAACGTCTAGGCCCCACCAGCCCACGGGAGTGGGCTTTCCCTTAAAAAGCCCAACAATATTTATGGTGACAATTCACTGTTTCTTCTTTGCAATTTTTGTATTCTTGGACTCCTTATTTTTTGTTTGCTTGATTTTAGTGGACATTCAGATTCAAATACAAA
B2: Carp picornavirus 1 (nucleic acid)
DNA: AGCTACAGGAAAGAGAGAGATAATCACAGCACATAAATACAACTACAGAAGAGAGCCTTTCCCTGAGCACTATTTACAGCAAACCACGCTGGGAAAAGTGGTAGCATGACCCACTTACGGGTTACTTAGTATAGGATTTTAATATCTTCGATTCTTTATTTTCTTTTCTTAACTAAGTTCGCCCGGACTTTATCCGTGTTTTATTTTAGTTTAAGCAAAATTGAGTAACTAAGTTTTTAACCTGCCAAATGGTGAGAAGTAACTCTGTGAAAATACCATTTGTGCATGAAATTGTCTTGAAAACTCTTAGGCTTTTGGGGGGTCCCACTGCTGTTTGGAGGACTATTGACAGACTCTATTGTAGTTGAGTAGTGACTAATGATAACGATTTGCGTATTACGCAATGGGCTGTACCCGTTAGATTTAGTATGCCGGGGGGAGGGGTCCCACTGGATTGCACTATGTAACCTGACAGGGCGTCTGCCGACGCACTACAATGAGGATAAGATCGGCTGTTTTTATTT
B3: Chicken picornavirus 3 (nucleic acid)
DNA: GGGTATGGTGGTTAACCCCGTCCACTGGGCATCTTTGCCCTCTCAGAAGTGGATCAATCCACCCCAACTCCCCCCCTGGTTACCTGAGCCACAGTGGACTCCGGTGACGAAGCTAGGGACCCCAATACCTCAAGTGCCAAGAGAGTCCCCCCCTCGCGAGAGGTGCTCTTGGGCCCAAAAGGCTAGTTGGCAGAGTGAAGTGAAGGAAGCTGCTAACGTGGTGACCTTAAGCGTAATTCGAAGCTGACCTTTGAGGTTAACCCTAGTGGACCACTGGAGGAATCTGTGGAGGTGGTGGTTAGGAAAGTTGGCCACTTGTGAGTAGATGCCCAGAAGGCATAAGGCTGATCTGGGGCCAGTGACTATACCGTTCCGGTAAACCTGGTATAAAAACCATGAAAGCAAGTGGGTGAAATTTTCTCTTTTTATCCTTCATTCAGCAGTTGATATTGGCAAA
B4: Chicken gallivirus 1 (nucleic acid, listed as Gallivirus sp.)
DNA: GGTTAACTTGTTTAACCAAGGCTTCCGTGCAGGGCTTGCACGTTAGGAGTTCATGTTGATTCATGCTCCAATGCCCAAAACTTTGTGTGTTTGTTTATGTCTTTCCCAAAGTTTCCCCCAAGGTTTCGGTACTCAAACCTTAATTCCTAGTCCCATCTTTTGGGCCTTAGTATCTAGGAAATGTACCCGTGCCTTGACGAACGTAAGAAAGCTGTCTTTTATTGAACGGTTCTAATGAACTAAGTATAACTGGCTCGCGCCACCTGGTGTGTGCCGTTGGAATTCCCCCATGGTAACATGGTCCAACGGGCCCGAAAGGCTAGTGGGCAATCGGTCCTCCAAGGAAGGGGTTCCCACCCCGACCTGAACAGGATTTGATGAAGCTCACCTCCCAGGCTCCTAACCCCAAGGAAGTTTACTTATAGTAATTAGAATTTAGTATGTAATTGCTGGCAATCTTGCTAGTAGTCAGGAACGTTATGACCAAATGAGTAGACCCCCAGAAGGTACCCCATTATATGGGATCTGATCTGGGCCTCATACTGTGTGTCTCCCCACATATGAGGTTAAAACCATGAAAGTTTGGTCCAAAATATTCTTTTCCTTTTATCTTTTCTTTAGTGGTGACGCCATTATATCAGCAGTTTGCTG
B5: Chicken picornavirus 1 (nucleic acid)
DNA: GTGGCCGACTTGCAGAACTTCCTACCGAACCACCACCTCACCCCCATAACTCCTTCCCTCTACACCTTCCGCTATGGTGGTTACCACTGCTTTATTGCCTTGACTGAGAATGGCCACCCCCTCGACACCTGCCCCCTACTGCCCCACCGCGCAACCTTTTGCTTGTCCACTCGGTTGGAGAGGCATGGGGGCCCCGTTCATATCCCCAGTCCAGTTGGTGACCTTCCCCCTCCCCGTCCGGTAGATGGTCCAGAGGGCTTTGCCGACGCCCTCTATGATGCTTGCTTGTCTTTCCTCCGTCAGCGCGAGCATGCACTTGTCGAGCCCACGGAAACACAGCCTAGCTTTTGCTTCTCTCACCCTGCGTACCCTGGGCGCCTTCCGCTCGAGATTCGCTTTGTTCGACACCCTGGCGTCCCCCCACCGCTACGTGATTTTACTCGTGGCATACACCGCCCTGGCGTTCAGTACATTCCACTGCCTAATTTGGGTGGCCTCCCTCAATCTCCCGCACCCCCCATTGCGCACGTCATCACCGCCGCCGCTAACGCGATCCGGCGCGGTTCTCACTGGCACTGTCCCCTCGTCCGCCGGGTTTCCACTCATGGTTGGCTTTTCACTTATTCTGGTTACTGGTGTTCCATCCTACTTCATGATGGTCGCCATGACCATGAC
B6: Poecivirus BCCH-449 (nucleic acid, listed as Poecivirus sp.)
DNA: ACTACACAATCGCAACACGCGCAAGTTTGTAGTTTGATTGGCGTGCAAATGTCAAATCAAGCATATAACACAATTTGGTGGCTGTTGGTGTTTGTTATAGGAATTTTGGTTGTGTTGAAATTGTGGATGTGTAGGAAATATGCACAATTACGTCAGCGTCAGGAGTTTTATAACCTGGCGCAACACCAAAATGGTCTTCGCGCTTTAACATCACCAGCGAGGTGTAAACAAATTGAAGTTGAATTAGATCGTGTATAGGCCAGGGAACCATCCCTCCCAACGCCACATCTTGTGGGGAAGTTGGGATAATGGTGGGTCTATATGAATTGGTCTGTAGACCCACAGTGAAGAGTGAATAGTATGCTTGCGGTTCCATTTGTTAATGGTCTAGCATGGGTGGGGGCGGCAACCCCGTGAGGGGTTCCCCACTGGCCAAAAGCCCAGGGGTTAGTCATTTCAACCAAGGAAGCTGGTAACCTGGTGACCTGAACTTGAGTGGTGAGACCCCCTTGCTAGAGTGTGTAAACCGATTGTAAGCATTTTGTTTGCTTAGTATCTGTGGTATAAGCAGTCAATTTTGTATAGGCTCAAGGCTGTGGTAGTTAGTAGATGCCCGGAAGGTTATTACTGATCCGGGGACCGTGACTATACATTAGGTAAACCGGTTTAAAAACC
B7: Coronavirus AcCoV-JC34 (nucleic acid)
DNA: AGAAACAAGTAGTGTTTTAAAAACCTTCAAATTAGTGCCTGTAACATCTTTGCAATGAAAGTAGCGCTCACTAGCCTCTATGCAAAGAATGTTAAAAGAAATACGAAGCATTTAAAGAATACAATCTATCTAGGATAGGTACAATTCTCCTCCCCCTCTTGACTTCGGTCAACTCAACTCAACTAAACGAAATCCCCCTTGCATGGTTCCGACCCGTGTAAGGTTGTGTATTTCGTGCAGTCGTTGCCCTTACTAGTGTAAGCGTAACGGCATCTAGGTTTGCACGTCTTGGAGGAAACGGTGTGTACGTTTCTAGTGTTTACGCCGTATCGGTTCCGGCCCGATAGGTATTGCATTAGACGTCCTGGGTGGTTCTGCCTGCCCTTGTGTGATTCGGCTGTTCCGTCAGTTTGGTCACCTCACACGTCCTTAAGAC
B8: Chicken orivirus 1 (nucleic acid, listed as Orivirus sp.)
DNA: AAACCCTCACGAGTGCTTGTGGTAGGTCCCAGGCCAATATTCTTCGTAAGGCTTGGTTCCAATTTTCCACCACTCGTGTTTGGGTTCTGGCCTATGGTACCCAGAGGGGCGGTTTGGGGGAATTAACTCCCCCTCCCCTGTGGTCCTATACCACCCCACACCTCTGTGGGCTTTCTTTACTATCTTCTTGTTTTCCGACTTTTAAACACTAGGCAGGCGCGCCTAGTCATACACCGCCCGGCTGGTCTTTCCAGCTCTTGTGGGCGGTGCGCGCTGGTCCATCGTGCCCAGCGACATAGCACCTTGTGGACACCTCCGAACGCCCTCCCCTGTATGGGGTGGTGCCCAGGGGTTTCAGTGTGGTGACACACTCCCTGGGGCCCGAAAGGCTAGTGTGCAACAGGTGAGGTACAGCCAGCTGCCCCCGTGGCTGGAGGGACCAAGCTTGTGAAGCACACCTCACCTTCTTGGGGGTGGGCTAGTAAGTGGTGAAAGCATAGTGTCCGTGTCGCTGGCCAACACTTTGGGTCAAGTCCAGCCACTCAGTGAGTAGATGCCCAGGAGGTACCCCTAGTGGATCTGACTTGGGGCCTGTTACTTAATGCAGGTTAAAAACTATGAAAGCTGAGTAGTGTAGCCCGGCTGGTGGCTTCTCTTCCTTATTCATTCTATTTT
B9: Chicken calicivirus (nucleic acid)
DNA: GGTGCATCATCACTGAACACCCTCGGGCAGAGATGCAAGGGTGGAAGTCACTCCTGCCCCCTGGCAACATGCAGGTGCCCGATCCCAAGCTTAGTTCTGACTTCCTCTCCTGGGTGGTGCAACACTCCAAGGTTGATGAACAAACCTGGAGGGACCTCTGGGCAACCTGGTCTCTCGAGGATCTCCGGCGCATCTCCACAGACTACCTCATGCTCCCGGAACCTGAGAAGAACACTGATGCCTATGATGGCTGGCTGATGGTCGGCGAGATGTTGACCTTTGCCGGTCTCATTGGCTGGGAGG

The data set relates to HEK293 cells. The data set is classed as cell-based, human. The note with it: luminescence from secreted Gluc in supernatant 24 hours after transfection of HEK293 cells; circular RNA encoding Gluc with the named IRES (UTR truncated to 675 nt).
On to B1, for which the Expression amounted to 3.08E+06.

B2 displayed an Expression of 1.13E+05.

For the molecule B3, the Expression worked out at 9.13E+04.

B4: the Expression was 1.51E+07.

As to B5, the Expression was 1.21E+05.

In turn, B6 had an Expression of 3.43E+05.

In turn, B7 showed an Expression of 1.82E+05.

With B8, the Expression is on record as 3.16E+05.

The molecule B9 had an Expression of 1.28E+05.
